According to the supplement of paper PMC12764529:
± gives the half width of the 95% confidence interval.

Experiments:
[1] = folding stability dG unfold from trypsin proteolysis; higher = more stable
Outline: (§1)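 Sequencing followed digestion of designed mini-proteins with trypsin and chymotrypsin, each at 11 concentrations in threefold dilutions together with a no-protease condition. The mini-proteins were under 80 residues, had no cysteine, sat in a PA-tagged cDNA display construct, and were kept only if AlphaFold2 dimer inter-PAE was above 15. From the counts, Bayesian fitting gave K50, and unfolding free energy was derived against a sequence-predicted unfolded-state K50 and a shared folded-state K50, per protease or combined.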

[2] = folding stability dG unfold from chymotrypsin proteolysis; higher = more stable
Outline: as §1

[3] = folding stability dG unfold (combined trypsin and chymotrypsin); higher = more stable
Outline: as §1

Row | Sequence | folding stability dG unfold [1] | folding stability dG unfold [2] | folding stability dG unfold [3]
1 | SAANTEEITITVPLTDPETGEERTVTIPVKYVNTNKPYKTPNGSTKTIPVPKSTVIKEAEEEAKKIFESSSA [r9_698_JUSTAS] | -0.381 ± 0.95 kcal/mol | 0.213 ± 0.3 kcal/mol | -0.369 ± 0.56 kcal/mol
2 | SAGGGMTVETTSKETPLPDGSLRRTETITITEPGGKPLTRTTTKIWDPSTGKVLETRPVSNATVVAESSAGG [r13_1008_JUSTAS] | -0.944 ± 0.82 kcal/mol | -0.0787 ± 0.15 kcal/mol | -0.187 ± 0.14 kcal/mol
3 | SAGGSSPEELAEKAINEAMEKFGFKEISEIKIQKEDDGVRITIRMPNNGYTIEIDYEDGKITEIQPWSAGGS [r16_171_TrROS] | 1.53 ± 0.051 kcal/mol | 0.23 ± 0.2 kcal/mol | 1.1 ± 0.083 kcal/mol
4 | SMKIKIYVAPPGYVVVRITGPNGFYIPIPAKDPDEAKAKLEELINNLQERNGHKPDIDVVPFPPGQEIGDSA [r9_786_TrROS] | 1.39 ± 0.044 kcal/mol | 2.22 ± 0.1 kcal/mol | 1.93 ± 0.15 kcal/mol
5 | SAGGSAGGGIEEELRRVLPEDATVTIEEVPERPLLVVTVTFPERAETRTFTFSPESPEKLIEALSAGGSAGG [r6_612_JUSTAS] | 0.82 ± 0.049 kcal/mol | 0.628 ± 0.12 kcal/mol | 0.679 ± 0.12 kcal/mol
6 | MRRFEFPETGLVVPVVPSPDGRYRVRIYRPGGELVLEVELPDLPIPEGSDAEIRIPLKDLPPDLVTFVEPES [r1_263_TrMRF] | 0.819 ± 0.054 kcal/mol | 1.46 ± 0.09 kcal/mol | 1.21 ± 0.11 kcal/mol
7 | SAGGEYTVVSVLEERKDPATGKTVTLELLKDPNSNVLYRRVTTTDPANPDVVTTTLYDAAGNKVSTVSSAGG [r13_658_JUSTAS] | 2.17 ± 0.046 kcal/mol | 2.62 ± 0.055 kcal/mol | 2.48 ± 0.095 kcal/mol
8 | SAGGSAGGSAGDDGDKKPEVKVKVKIEPTIIPSPNGELMLMWTLEIEYPGNGEKREFTFMSAGGSAGGSAGG [r17_59_TrROS] | 1.33 ± 0.071 kcal/mol | 1.92 ± 0.13 kcal/mol | 1.58 ± 0.17 kcal/mol
9 | SAGGSDYYIRVRIRIYKPTPEDMQEGKPIPEVEIWFPFDSVEEIKEFLENLPPNIKVDVDWFPPEDSAGGSA [r2_25_TrROS] | 3.35 ± 0.073 kcal/mol | 4.21 ± 0.11 kcal/mol | 3.89 ± 0.14 kcal/mol
10 | SAGGSAGGAANIPADQTLEFPTPDGYRRRLTYYPDEGLLVAEYVNPADGTPTFYTFDIPPDSTLSAGGSAGG [r6_406_TrMRF] | 0.864 ± 0.048 kcal/mol | 1.43 ± 0.084 kcal/mol | 1.21 ± 0.057 kcal/mol
11 | SAGGSAGGSSLEEIAKKLGLKPGMRVRLSDGKVLEVPSLDDLKAALEAGLSLEELKKIEIEPVSAGGSAGGS [r12_430_TrROS_Hall] | 1.13 ± 0.023 kcal/mol | 1.68 ± 0.04 kcal/mol | 1.42 ± 0.12 kcal/mol
12 | SMIKIKLKNGMEITIEKTPEKVKIKLKATGKEIELPLEELENMTEEELLEKLRKLAEELGMEVEEVEIEPSA [r9_1211_TrROS_Hall] | 3.18 ± 0.14 kcal/mol | 3.43 ± 0.083 kcal/mol | 3.38 ± 0.11 kcal/mol
13 | SYKIHIMRPNGEMEEIPIKHPDGWKINIHRGPNKPFYIMVERYDPDGGPKPKPVIPIDSPEQALDKLKDASA [r9_942_TrROS] | -0.123 ± 0.18 kcal/mol | -0.11 ± 0.3 kcal/mol | 0.0153 ± 0.2 kcal/mol
14 | SALLVAPDGTVVKPETIKTTVETFTTYFLPPGKPVTRKGVKEYTVTVTTTTYTTPNPTLTVETTVTTVGSAG [r14_291_JUSTAS] | -0.0458 ± 0.11 kcal/mol | 0.667 ± 0.2 kcal/mol | 0.392 ± 0.2 kcal/mol
15 | SGPIAELVKAHPGVPVEDLAKAIVDALKAQLPKDVPITVDAEVTPDGIKLNVTVEGDTEPFTFPFVVKPGSA [r9_805_TrMRF] | 0.879 ± 0.024 kcal/mol | 1.34 ± 0.038 kcal/mol | 1.2 ± 0.043 kcal/mol
16 | SAKLAEEIAKKILPEVKEVKILKIEVKKDPKSKFKVIKIEMLVKMPKGEKKIKIEIKPGKPKIKIIPLDSAG [r14_397_TrMRF] | 2.16 ± 0.09 kcal/mol | 2.85 ± 0.1 kcal/mol | 2.67 ± 0.22 kcal/mol
17 | SAGGSAGGSMRIKTIKVIPQDDGMYSINITFPGVEREIPIPPQMPPDQITEIEIPIYFDGEPPSAGGSAGGS [r12_673_TrROS] | -0.257 ± 0.16 kcal/mol | 0.436 ± 0.12 kcal/mol | 0.212 ± 0.097 kcal/mol
18 | SAGGEMTAEERARRLAERLAEELERRTGRKVEVVSVEVEYDPETDEVTVRIEIRLEDGSTLTIELRLSAGGS [r8_372_TrROS_Hall] | 4.86 ± 0.26 kcal/mol | 3.41 ± 0.11 kcal/mol | 4.33 ± 0.27 kcal/mol
19 | SAGGNAKEIASYLADWFQERFPPNMKVKVSVTVTPDGIVVRIRMPGGWQFEITIKDGKLQEIEWTPYSAGGS [r8_287_TrROS] | 2.72 ± 0.07 kcal/mol | 2.874 ± 0.026 kcal/mol | 2.79 ± 0.067 kcal/mol
20 | SKEEEEEIEIEIVVPNLTEEEIKELAKELLEKKGYEVEEIEITEEELEELKNKKPGDEVVIKIKIKVKKKSA [r9_1163_TrROS_Hall] | 2.51 ± 0.19 kcal/mol | 2.27 ± 0.073 kcal/mol | 2.51 ± 0.2 kcal/mol
21 | SAGGSAGGSAGGSMLVRFPDKDVLSDGSEAEAERLAEELAAAGRPVELEFISPEEAAARSAGGSAGGSAGGS [r4_131_JUSTAS] | -0.225 ± 0.21 kcal/mol | -0.83 ± 0.32 kcal/mol | -0.424 ± 0.31 kcal/mol
